# Laboratory results as given in the DeepSol protein solubility set.
# Assay: soluble on expression in E. coli; label from the status in PepcDB or PDB records
row,Sequence,soluble on expression in E. coli
1,MVGGSLSPAFTIDEATSYINAVKEAFGADQPAKYREFLDIMLDLRANRVDLATVVPRMRELLKDHVNLLLRFNAFLPAEAKETFHDVRSYIYSLKESFRDEPAKYAQFLEILNDYSARRVDAPSAVARMTELMKDHRNLVLGFSVLLSTGDTKTTPLEAEPDNNKRIRVANFISKLKARFQGNDGHVYESFLEILTMYQQGNKSVNDLYQEVVALLQGHEDLVMEFSNVFKRTTGPSGSKSARDR,soluble
2,KVQTDPPSVPICDLYPNGVFPKGQECEYPPTQDGRTAAWRTTSEEKKALDQASEEIWNDFREAAEAHRQVRKYVMSWIKPGMTMIEICEKLEDCSRKLIKENGLNAGLAFPTGCSLNNCAAHYTPNAGDTTVLQYDDICKIDFGTHISGRIIDCAFTVTFNPKYDTLLKAVKDATNTGIKCAGIDVRLCDVGEAIQEVMESYEVEIDGKTYQVKPIRNLNGHSIGQYRIHAGKTVPIIKGGEATRMEEGEVYAIETFGSTGKGVVHDDMECSHYMKNFDVGHVPIRLPRTKHLLNVINENFGTLAFCRRWLDRLGESKYLMALKNLCDLGIVDPYPPLCDIKGSYTAQFEHTILLRPTCKEVVSRGDDY,soluble
3,EIAPLFTIENTVEEVEGMRPYTPLELAGRDIYVREGCYACHSQMIRTLRSDVERYGHYSLAAESMYDHPFQWGSKRTGPDLARIGGKYSDDWHVAHLEDPRALVPGSVMPGYAFLSATRLDTGHLPAALEALRRAGVPYTDAQIATAEQAAGWQADAEQAYESELQELFGDNVQLRDFDGRPGELTEMDALVAYLQVLGT,not soluble
4,MGSDKIHHHHHHMNIHYYLIINEQASSGNGRKVARKVIQQLKQQELKYTALYTDYAGHEKELTKELAETTLLPWSEDLDVSTFPILVVLGGDGTLHNVINSLLPYDSTIPLSYIPCGSGNDFARGVGLSRNIDKALHQILRTRRPKEIQTIHYVEANQEEIGLATNNVGLGLDAAIVEKTNESSSKKALNKFKLGSLSYISSIIHVFFRQKGFPILVEMNGKQYTFNRAFLCTVTNHPYFGGGVSIMPTANPRKAVVDLVVVERINIFKILWLIFLLLRQKQGKSKHFHHFQSSKIRIVSTIPQTIHADGEILGKRSIDMVYTTQKRLFWF,not soluble
5,GQLDDVLMPYVGDQTEAQIYKKLRHFWIMLDRTLPDAFMHVNIGPTDNIICRTILRVDAELKQIAPNLTFMYDESITPDDLLRQATKNICDCSKPHIANYPIHANAYDGERFGIVSCYNSLPLAGGSNTLVRMNLKEVAKRAASRDDFFSNVLPTYHQLMTELMDARSSHLHEQSQFFQGFLTQEGLIEESRFAPMYGIYGMAEAVNLLLEKEGQTSRYGQDERANALGHEISASLATLVDSTPVRYGLEGKALLHAQGGISLDLDVTPGVRLPYGNEPDPVTYVQATAAHHQYYRAGISDILTIDETVKSNPEAMFNLCKGALNAGYREFTANVASNDLVRVTGYMVKLSDIAKYDAEGSRTNTTFLGAEAAKNTGILERSPRVVSQEMSPVYK,not soluble
6,MEKPVICRIKEIIEESPTVKTFVVDKDFDFKPGQFAMLWLPGVDEKPFGFSSKNSFSVARVGEFTKKMHELKEGDIIGVRGPYGTYFEPIGDKVLAVAGGIGAAPIITAVEEFSKQGIEITTILGARTKEELLFLDRFEKVSRLEICTDDGSFGFKGFTTEKMKEVLKEEKFDLIITCGPEIMMKKVVEIANEYNIPVQVSMERYMKCGIGICGQCCVDDEGLCVCKDGPVFWGDKLKFIREFGKYKRDASGKKIYY,not soluble
7,MQGTRVMHIFVLSKRKITMNVDNVKSQMRKGMLEYCIMLLLHKEPAYASDIIQKLKEAQLIVVEGTLYPLLTRLKNDDLLSYEWVESTQGPPRKYYKLTEKGEAFLGELEISWKELNETVNHIASR,not soluble
8,INQPVIETERFDLRPLRKSDMGLIEHYARDERVARMTTSIPHPLPPGMAEGFVARAMSEERTEDVWAMDATRDGGPELMGLISLERMDRNQSEVGYWVAPVFWNTGIASMAVEALVNANPLGNATMFASVFQDNPASARVLTHCGFQYLGDAESYSVARDAAVPTWTYSRKL,soluble
9,MKKVSIIIPFKGQTEAELMLPLSSIYNQIGVDLSQLDIHLVNDGGKTIDLSKFDVLADRLEIHYHEIPNGGPGVARQYGIDNSISEYIMFIDADDVLYYVGALWPFYNASNQGHQMIRASYWEQIAGNPYTYTVHGNGDRKAAYGKWYKRSYIEMLGLRFMPDLPIYEDTYFVGLACELATDTCFLEEKVYMWLANPNSITRTVENKFNYQAHIYARENRYWFEMIRKWKPECLEHHHHHH,soluble
10,MSSEKRVGMVEKSNNKRQRVNQVPVFSINDHHDVLVEILRRLDGSSLCSAACVCRLWSAVARNDSIWEELCFRQVSPRPSLSLRSVVSALGGYRCLYFLCIRPVLARLPKLLWTRDQLQLSLSLYCVHYYERLYVGAWLGDAPPSSLIFLRKPVNVV,soluble
11,MIRITQIKISIDEPVSKVKSLVLKKLRLQESDLLDYRIYKESIDARHRGEIDFIYTVDIKLKDEARILSKKIKNVSLAPELDYVNPVIGSKKMLHRPVVIGFGPAGMFAALLLAQNGYRPIVLERGQAVDERVKSIDKFWLEGKLNPKSNVQFGEGGAGTFSDGKLTSRVRDLRGRKVLEEFVQAGAPEDILYKAHPHVGTDLLRDIVKNIRKQIIELGGEVHFDAQVEEFLIEDEELQAVKLADGNIIKTNQAILAIGHSARDTFSELYDKGVTITAKPFAVGVRIEHPQSLINKAQYKEFADHPRLGAAEYRLTYKASSGRGVYTFCMCPGGLVVPAASEEGGLVTNGMSEHARDQKNANSGLLVQVFPEDFPTDHPLAGVEFQKELEHKAFELGGSNYQAPAQLVGDFLDGKASKAMGTVEPSYALGVKPTNLESLFPDYVTQSMREAIVGLDKKMHGFALSDAVMTGVESRSSSPVRINRDEENYQSVSTKGIYPSGEGAGFAGGIVSAGIDGLKCAESMIAEFAKLLMEDLEHHHHHH,soluble
12,MSLSTFPTALAVAVSVPSSLTPQDFSWRKFKLKRNVKISRNFEFAISCSGDRAASIGFDVPFPKDYTELLQQVFILFAFSPLKIGGWGSRNRGGITREIKAKEATELALKDNRQLMEIEFPTAGLGSVPGDGEGGIEMTGSIQLIREFCDLLVIPEKATKTRIFFPEANEVKFARQSIFGGASFKLDYLTKPSFFEDFGFTEKVKMADRVKPEDELFIVAYPYFNVNEMLVVEELYQAAVLNTSRKLIIFNGELDRIRSDYPPFFYPKLAALSKTLFPKMETVYYIHNFKGRNGGVLFRCYPGPWKVFRRVGSTNICLHQQESMPSLKEVALDILPSAEGHHHHHH,not soluble
13,MSLTQFKKFAEHISSCFSPSAIQEFSRKSKIVKRKRMFTIDHLLWLCVWQEKNMGDSSLIDMCASLWQQFGIKISPEGLNQRFNEKSTAFLKLLFHSILEKQTPDLAAIQHAYSTHFNRIRILDSTSFQLPNTFSDKYPGNGCLMQLKSAEGHHHHHH,not soluble
14,RRRAKGLRREEVAQLAGISATWLTWLEQGRSESVSAQTLSRLAAALQLSGAETDYLFDLAGLKNPQEKRADANPQAREILEEMLPRIDMPAYVLDRLWRAVAWNRAAEELFC,not soluble
15,MVMETESKFHVLAVDDSLFDRKMIERLLQKSSCQVTTVDSGSKALEFLGLRVDDNDPNALSTSPQIHQEVEINLIITDYCMPGMTGYDLLKKVKESAAFRSIPVVIMSSENVPARISRCLEEGAEEFFLKPVKLADLTKLKPHMMKTKLKKESEKPVAIEEIVVSKPEIEEEEEESSVIEILPLHQEIESEQLEPMLSSNKRKAMEEVVSTDRSRPKYNDITTSV,not soluble
16,MGSDKIHHHHHHMEVQLPKIKTVRVMLAGMTAQQESVFKMAFKMHNTTRYETVSPSDGSAVPDLVLADTDAEGGFELWKELAGRYKAIPVAVCSEKVPDSEVPYLPKPIRFETLFPMLRKLLQGENVYGKSFIAPADRSAKNNGNVQRTVTIRQFNPNKGLLGALRFAEKNRQDIAILHGNKPVLNCFPLDTTGFADRKCVKTRRIVQRRKFAGQLQDCSR,not soluble
17,MNEDNSQNSEGPSRKSFFERLSQLFQGEPKDRQELVDVIRDSEVNDLIDHDTRDMLEGVMEIAEMRVRDIMIPRSQMVTIDRTHNLDALVAIMTDAQHSRYPVISEDKDHVEGILLAKDLLKYLGSNCAPFNIQEVIRPAVVVPESKRVDRLLKEFREERYHMAIVVDEFGGVSGLVTIEDILEEIVGDIEDEFDDEEQKDIRQLSKHTFSVKALTTIEDFNHTFGTKFSDEEVDTVGGLVMTAFGHLPARGEVVDIAGYNFKVTAADSRRVVALQVTVPDLEALSHVAEE,not soluble
